B1: Glucocorticoid receptor (Homo sapiens), P04150 (parent)
chain: MDSKESLTPGREENPSSVLAQERGDVMDFYKTLRGGATVKVSASSPSLAVASQSDSKQRRLLVDFPKGSVSNAQQPDLSKAVSLSMGLYMGETETKVMGNDLGFPQQGQISLSSGETDLKLLEESIANLNRSTSVPENPKSSASTAVSAAPTEKEFPKTHSDVSSEQQHLKGQTGTNGGNVKLYTTDQSTFDILQDLEFSSGSPGKETNESPWRSDLLIDENCLLSPLAGEDDSFLLEGNSNEDCKPLILPDTKPKIKDNGDLVLSSPSNVTLPQVKTEKEDFIELCTPGVIKQEKLGTVYCQASFPGANIIGNKMSAISVHGVSTSGGQMYHYDMNTASLSQQQDQKPIFNVIPPIPVGSENWNRCQGSGDDNLTSLGTLNFPGRTVFSNGYSSPSMRPDVSSPPSSSSTATTGPPPKLCLVCSDEASGCHYGVLTCGSCKVFFKRAVEGQHNYLCAGRNDCIIDKIRRKNCPACRYRKCLQAGMNLEARKTKKKIKGIQQATTGVSQETSENPGNKTIVPATLPQLTPTLVSLLEVIEPEVLYAGYDSSVPDSTWRIMTTLNMLGGRQVIAAVKWAKAIPGFRNLHLDDQMTLLQYSWMFLMAFALGWRSYRQSSANLLCFAPDLIINEQRMTLPCMYDQCKHMLYVSSELHRLQVSYEEYLCMKTLLLLSSVPKDGLKSQELFDEIRMTYIKELGKAIVKREGNSSQNWQRFYQLTKLLDSMHEVVENLLNYCFQTFLDKTMSIEFPEMLAEIITNQIPKYSNGNIKKLLFHQK

Variants of: B1
Conditions: with akt1_human AKT1, P31749
Sequence of akt1_human AKT1, P31749 (P31749 whole entry): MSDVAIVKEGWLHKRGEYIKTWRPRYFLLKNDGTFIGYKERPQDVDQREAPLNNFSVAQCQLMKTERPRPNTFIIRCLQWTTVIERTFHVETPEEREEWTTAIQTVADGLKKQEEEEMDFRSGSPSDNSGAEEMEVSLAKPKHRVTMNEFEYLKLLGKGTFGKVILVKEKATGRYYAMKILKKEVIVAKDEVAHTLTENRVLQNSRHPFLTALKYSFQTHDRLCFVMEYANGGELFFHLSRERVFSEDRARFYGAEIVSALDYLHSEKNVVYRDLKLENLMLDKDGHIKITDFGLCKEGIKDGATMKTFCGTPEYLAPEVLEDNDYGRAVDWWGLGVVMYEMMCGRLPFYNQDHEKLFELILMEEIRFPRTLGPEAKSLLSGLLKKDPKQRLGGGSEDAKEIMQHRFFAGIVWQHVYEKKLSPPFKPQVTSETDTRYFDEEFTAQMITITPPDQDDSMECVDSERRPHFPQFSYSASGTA

Variant | effect of a mutation on the interaction
S134A | disrupting interaction
